Article PMC7791793

How the values were obtained:
[1] = molecular target: human ether-à-go-go-related gene potassium channel 1 (hERG), wild type, in Xenopus laevis oocytes (human) (UniProt Q12809); assay: two-electrode voltage clamp (fraction of uninhibited tail currents)
[2] = molecular target: human ether-à-go-go-related gene potassium channel 1 (hERG), wild type, in Xenopus laevis oocytes (human) (UniProt Q12809)
[3] = molecular target: human ether-à-go-go-related gene potassium channel 1 (hERG), stable HEK 293 cell line (human) (UniProt Q12809)

## recombinant APETx1 (wild type) (peptide)
[1]
  apparent Kd, model (A): four equivalent and independent binding sites per channel, fractional toxin-sensitive current: 1200 nM
  apparent Kd, model (B): four equivalent and independent binding sites per channel, fully toxin-sensitive current: 1700 nM
  apparent Kd, model (C): one binding site per channel, fractional toxin-sensitive current: 230 nM
[2]
  toxin-induced shift of the half-maximal activation voltage (ΔV1/2) of hERG, TEVC recordings in oocytes, APETx1 0.1-10 μM; value at 10 μM: 21.9 mV
[3]
  toxin-induced shift of the half-maximal activation voltage (ΔV1/2) of hERG, whole-cell patch clamp, APETx1 0.1-10 μM; value at 10 μM: 23.9 mV
